From patent US20070265199A1 (UNIVERSITY OF ROCHESTER, published 2007) come the findings set out here.

Test [1] has as its target T1, factor IXaβ (UniProt P00740 47-191; P00740 227-461).
T1 construct: Bought reagent
As to the kind of experiment: factor Xa generation assay on non-activated platelets, factor IXa titrated with factor VIIIa. As for the experimental part:
(§1) Factor VIII cofactor activity, factor IXa-factor VIIIa affinity, and kinetic parameters were determined using factor Xa generation assays. Reactions were performed in the presence of either phospholipid vesicles, non-activated platelets, or platelets activated by SFLLRN-amide (50 μM).

In test [2] the target is T1, factor IXaβ. Briefly: factor Xa generation assay on activated platelets (SFLLRN-amide), factor IXa titrated with factor VIIIa. As to the method: as §1
In test [3] the target is T1, factor IXaβ. Briefly: factor Xa generation assay on phospholipid vesicles, factor IXa titrated with factor VIIIa. As for the experimental part: as §1

T1 sequence (P00740 47-191 limits assumed, form in doubt, chain 1 of 2): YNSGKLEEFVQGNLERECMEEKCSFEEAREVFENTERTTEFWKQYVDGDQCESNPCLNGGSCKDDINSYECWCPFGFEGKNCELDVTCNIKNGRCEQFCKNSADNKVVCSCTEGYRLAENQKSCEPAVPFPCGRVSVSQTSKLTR
T1 sequence (P00740 227-461 limits assumed, form in doubt, chain 2 of 2): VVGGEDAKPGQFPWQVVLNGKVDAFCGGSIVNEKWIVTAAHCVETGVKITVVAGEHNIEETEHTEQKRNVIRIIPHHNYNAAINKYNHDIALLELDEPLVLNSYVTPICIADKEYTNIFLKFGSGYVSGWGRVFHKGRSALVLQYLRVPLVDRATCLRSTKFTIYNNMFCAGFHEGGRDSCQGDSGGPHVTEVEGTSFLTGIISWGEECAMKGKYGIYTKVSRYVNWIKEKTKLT

B1: factor VIIIa E113A (thrombin-activated B-domainless factor VIII bearing Glu113Ala) (other)
chain 1: ATRRYYLGAVELSWDYMQSDLGELPVDARFPPRVPKSFPFNTSVVYKKTLFVEFTVHLFNIAKPRPPWMGLLGPTIQAEVYDTVVITLKNMASHPVSLHAVGVSYWKASEGAAYDDQTSQREKEDDKVFPGGSHTYVWQVLKENGPMASDPLCLTYSYLSHVDLVKDLNSGLIGALLVCREGSLAKEKTQTLHKFILLFAVFDEGKSWHSETKNSLMQDRDAASARAWPKMHTVNGYVNRSLPGLIGCHRKSVYWHVIGMGTTPEVHSIFLEGHTFLVRNHRQASLEISPITFLTAQTLLMDLGQFLLFCHISSHQHDGMEAYVKVDSCPEEPQLRMKNNEEAEDYDDDLTDSEMDVVRFDDDNSPSFIQIR
chain 2: SVAKKHPKTWVHYIAAEEEDWDYAPLVLAPDDRSYKSQYLNNGPQRIGRKYKKVRFMAYTDETFKTREAIQHESGILGPLLYGEVGDTLLIIFKNQASRPYNIYPHGITDVRPLYSRRLPKGVKHLKDFPILPGEIFKYKWTVTVEDGPTKSDPRCLTRYYSSFVNMERDLASGLIGPLLICYKESVDQRGNQIMSDKRNVILFSVFDENRSWYLTENIQRFLPNPAGVQLEDPEFQASNIMHSINGYVFDSLQLSVCLHEVAYWYILSIGAQTDFLSVFFSGYTFKHKMVYEDTLTLFPFSGETVFMSMENPGLWILGCHNSDFRNRGMTALLKVSSCDKNTGDYYEDSYEDISAYLLSKNNAIEPR
chain 3: SFQKKTRHYFIAAVERLWDYGMSSSPHVLRNRAQSGSVPQFKKVVFQEFTDGSFTQPLYRGELNEHLGLLGPYIRAEVEDNIMVTFRNQASRPYSFYSSLISYEEDQRQGAEPRKNFVKPNETKTYFWKVQHHMAPTKDEFDCKAWAYFSDVDLEKDVHSGLIGPLLVCHTNTLNPAHGRQVTVQEFALFFTIFDETKSWYFTENMERNCRAPCNIQMEDPTFKENYRFHAINGYIMDTLPGLVMAQDQRIRWYLLSMGSNENIHSIHFSGHVFTVRKKEEYKMALYNLYPGVFETVEMLPSKAGIWRVECLIGEHLHAGMSTLFLVYSNKCQTPLGMASGHIRDFQITASGQYGQWAPKLARLHYSGSINAWSTKEPFSWIKVDLLAPMIIHGIKTQGARQKFSSLYISQFIIMYSLDGKKWQTYRGNSTGTLMVFFGNVDSSGIKHNIFNPPIIARYIRLHPTHYSIRSTLRMELMGCDLNSCSMPLGMESKAISDAQITASSYFTNMFATWSPSKARLHLQGRSNAWRPQVNNPKEWLQVDFQKTMKVTGVTTQGVKSLLTSMYVKEFLISSSQDGHQWTLFFQNGKVKVFQGNQDSFTPVVNSLDPPLLTRYLRIHPQSWVHQIALRMEVLGCEAQDLY
notes: also called factor VIII E113A; Factor VIII:E113A
B1: the results for the Kd with factor IXaβ [1], with factor IXaβ [2] and with factor IXaβ [3] were 5.7 nM, 6 nM and 5 nM, respectively.
